# Experimental data: patent US20090155249A1 (AC IMMUNE S A, published 2009)
# Biological target: Amyloid Beta (antigen of the Amyloid Beta ELISA) (UniProt P05067 672-713, limits assumed)
# Test: Amyloid Beta ELISA, purified antibodies, A405
# Amyloid Beta (antigen of the Amyloid Beta ELISA), sequence (P05067 672-713 limits assumed): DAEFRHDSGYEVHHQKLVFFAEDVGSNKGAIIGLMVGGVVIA
binder,measurement,value
"chimeric antibody C2 ChVH AF/ChVK (antibody, V domains shown, both forms are written under this id; also called C2 VH AF/C2 VK chimeric antibody; chimeric AF) VH: EVQLVESGGGLVQPGGSLKLSCAASGFTFSSYGMSWVRQTPDKRLELVASINSNGGSTYYPDSVKGRFTISRDNAKNTLYLQMSSLKSEDTAMYYCASGDYWGQGSTLTVSS VL: DVVMTQTPLSLPVSLGDQASISCRSSQSLVYSNGDTYLHWYLQKPGQSPKLLIYKVSNRFSGVPDRFSGSGSGTDFTLKISRVEAEDLGVYFCSQSTHVPWTFGGGTKLEIKR",EC50 (read off the curve),~3 ng/well
